The target in series [1] is Cascade (Cas7-tagged prep) (Escherichia coli) (UniProt Q46901+P76632+Q46899+Q46898+Q46897). Put plainly: EMSA.
Series [2] concerns the molecule itself. Put plainly: crystal structure.
Series [3] deals with T1, Cse1 (tail subunit of E. coli Cascade) (Escherichia coli K12, UniProt Q46901 1-502).
T1 sequence: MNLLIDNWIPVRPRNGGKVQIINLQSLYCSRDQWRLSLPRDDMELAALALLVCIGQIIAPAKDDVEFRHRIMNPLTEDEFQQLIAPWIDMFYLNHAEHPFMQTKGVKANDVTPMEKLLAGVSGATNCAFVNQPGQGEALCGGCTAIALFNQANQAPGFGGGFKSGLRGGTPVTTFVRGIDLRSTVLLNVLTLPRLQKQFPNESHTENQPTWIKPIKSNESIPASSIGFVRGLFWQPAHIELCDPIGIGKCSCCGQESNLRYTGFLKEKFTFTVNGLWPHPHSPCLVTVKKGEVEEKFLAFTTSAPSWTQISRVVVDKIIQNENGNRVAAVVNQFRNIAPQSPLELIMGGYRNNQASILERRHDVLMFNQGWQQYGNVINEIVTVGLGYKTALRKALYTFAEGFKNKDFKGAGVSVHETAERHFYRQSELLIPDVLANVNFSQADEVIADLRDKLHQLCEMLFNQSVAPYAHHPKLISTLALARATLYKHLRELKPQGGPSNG
Put plainly: crystal structure.

For series [4], the target named is T2, Cascade (Cse2-tagged prep) (Escherichia coli, UniProt Q46901;P76632;Q46899;Q46898;Q46897 1-502;1-160;1-363;1-224;1-199).
T2 sequence 1: T1 sequence
T2 sequence 2: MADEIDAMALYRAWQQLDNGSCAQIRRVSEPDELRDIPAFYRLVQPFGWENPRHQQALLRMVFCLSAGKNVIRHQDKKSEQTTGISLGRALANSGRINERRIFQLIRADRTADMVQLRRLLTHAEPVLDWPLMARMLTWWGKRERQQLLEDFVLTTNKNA
T2 sequence 3: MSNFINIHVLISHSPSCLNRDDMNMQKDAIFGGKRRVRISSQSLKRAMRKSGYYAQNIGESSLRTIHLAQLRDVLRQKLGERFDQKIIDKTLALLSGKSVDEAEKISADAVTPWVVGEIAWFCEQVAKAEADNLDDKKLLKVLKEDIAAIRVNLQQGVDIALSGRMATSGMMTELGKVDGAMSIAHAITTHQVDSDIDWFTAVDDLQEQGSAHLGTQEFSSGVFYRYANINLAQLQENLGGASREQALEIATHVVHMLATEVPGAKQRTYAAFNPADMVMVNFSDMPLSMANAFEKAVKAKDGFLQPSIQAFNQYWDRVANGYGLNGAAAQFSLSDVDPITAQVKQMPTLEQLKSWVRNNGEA
T2 sequence 4: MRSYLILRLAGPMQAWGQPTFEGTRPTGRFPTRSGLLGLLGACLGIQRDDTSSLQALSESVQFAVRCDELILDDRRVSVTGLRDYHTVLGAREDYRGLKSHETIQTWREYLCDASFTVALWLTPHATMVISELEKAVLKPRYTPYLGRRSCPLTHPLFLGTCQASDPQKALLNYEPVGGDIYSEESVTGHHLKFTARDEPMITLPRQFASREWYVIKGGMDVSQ
T2 sequence 5: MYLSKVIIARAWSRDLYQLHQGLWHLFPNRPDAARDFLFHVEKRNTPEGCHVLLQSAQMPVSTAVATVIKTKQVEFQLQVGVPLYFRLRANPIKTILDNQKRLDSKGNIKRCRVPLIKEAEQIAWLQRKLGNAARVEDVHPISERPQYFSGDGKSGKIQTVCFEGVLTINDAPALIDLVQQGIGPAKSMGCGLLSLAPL
Put plainly: EMSA.

As for “GCGCGGCAAGCCGAAAGCATGACGGTATTGTTCAGATCCTGGCTTGCCAACAGTGATTGCTCGGGAGTCGCT (double strand) [72 bp dsDNA target (+21), CAT PAM]”, the equilibrium dissociation constant (Kd) in series [1] was 13.3 nM. This lies in the double-digit nanomolar range.

B1: Cas7 as in the crystallised Cascade (natural protein)
chain: T2 sequence 3
Consider B1, for which the “stoichiometry N” value in series [2] came to 6.

B2: Cas5e (subunit of E. coli Cascade) (natural protein)
chain: T2 sequence 4
On to B2, for which, in series [3], the binding result is “binds”.

B3: 72 bp dsDNA target (+21), CAT PAM (dsDNA)
DNA 1: GCGCGGCAAGCCGAAAGCATGACGGTATTGTTCAGATCCTGGCTTGCCAACAGTGATTGCTCGGGAGTCGCT
DNA 2: AGCGACTCCCGAGCAATCACTGTTGGCAAGCCAGGATCTGAACAATACCGTCATGCTTTCGGCTTGCCGCGC
For B3, the Kd in series [4] worked out at 1.14 nM.

The values above are taken from publication PMC4787809 (Nucleic Acids Research, 2015).
